Experimental data: patent US20230332166A1, “FORMATE-INDUCIBLE PROMOTERS AND METHODS OF USE THEREOF” (Imperial College Innovations Ltd, priority 2020, published 2023)

test system: Y. lipolytica JMY2900; assay: qPCR of putative FDH gene transcription upon induction with sodium formate; type: cell-based, Yarrowia lipolytica; conditions: YNB with 0.5% sodium formate, 6 h, 28° C., vs absence of formate; qPCR normalised to actin
Protocol: FIG. 3: Transcription levels of the FDH genes of Yarrowia lipolytica W29 measured by qPCR, normalised to actin (ACT1) expression. Yarrowia lipolytica was grown in YNB supplemented with 1% glucose and 0.5% yeast extract at 15 h at 28° C., before being washed and transferred into YNB with 0.5% of sodium formate for induction and grown for 6 h.
The inducibility of the putative FDH genes with formate was then tested by qPCR. YALI0E14256g1_1 and the nine putative FDH with the highest % identity to YALI0E14256g1_1 were selected for testing. Y. lipolytica JMY2900 was cultured in YNB media supplemented with 1% glucose and 0.5% yeast extract for 15 h at 28° C. Cells were washed with distilled water and cultured in fresh liquid YNB media supplemented with 0.5% sodium formate at 28° C. with agitation at 160 rpm, before being harvested at 6 h post-inoculated. Cells were frozen in liquid nitrogen and stored at −80° C. RNA was subsequently extracted using the RNeasy Mini Kit (Qiagen), and 2 μg was treated with DNAse (Ambion; Life Science Technologies, Saint-Aubain, France). cDNA was synthesised using the Maxima First Strand cDNA synthesis kit (Thermo Fischer Scientific, Villebon sur Yvette, France). qPCR was then performed using the SYBRgreen mastermix (Thermo Fischer Scientific) with gene-specific primers designed using Primer3 software. Relative expression levels were calculated using ΔCT and ΔΔCT methods. Expression levels were normalised to actin.

Molecule	Fold increase on induction (fold change expression of putative FDH genes upon induction with sodium formate) [fold]
Yali0B19976: putative Y. lipolytica FDH gene; promoter region SEQ ID NO: 9 (1 Kb) and 25 (1.5 Kb) (nucleic acid, listed as Yarrowia lipolytica, YALI0B19976g) DNA: ATGAAGGTCCTTCTTGTTCTCTACGACGCCGGCTCCCACGCCAAGGATGAGCCCAAGCTACTTGGATGCACTGAAAACGAGCTCGGTATCCGAGACTGGCTCGAGTCCCAGGGCCATACCCTGGTAACTACCTCTTCTAAGGATGGCGCCGACTCCGTTCTCGACAAGGAGATTGTTGATGCCGATGTTGTCATCACTACCCCCTTCCATCCCGGTTACATCAACAAGGAGAGAATTGACAAGGCCAAGAAGCTCAAGATCTGTATCACTGCCGGTGTTGGTTCTGACCATGTCGATCTAGATGCCGCCAACGCCCGAGACATTGCTGTCCTTGAAGTCACTGGCTCCAACGTTCAGTCGGTCGCTGAGCATGTTGTCATGACCATGCTTGTTCTGGTCAGAAACTTCGTCCCTGCTCATGAGCAGATCATTTCTGGTGGCTGGGACGTTGCCGCTGTCGCCAAGGACTCTTACGACCTAGAGGGTAAGGTCATTGGTACAGTTGGAGGTGGGCGAATCGGTCAGCGAGTCCTCAAGCGATGCAAGCCCTTCGACCCCATGGAGATGCTCTACTACGACTACCAGCCCATGCCCGCTGATGTCGAGAAGGAGATTGGCTGTCGACGAGTGGAGTCTCTCGAGGAGATGCTCTCTCTCTGTGACGTTGTCACCATCAACTGTCCTCTGCACGCCTCCACCAAGGGCCTCTTCAACAAGAAGCTCATCTCCCACATGAAGGATGGCGCCTGGCTCGTCAACACCGCTCGAGGAGCTATTTGTGTCACTGAGGACATTGTTGAGGCTCTCGAGTCCGGAAAGATTCGAGGCTACGGTGGTGATGTCTGGTTCCCTCAGCCCGCCCCAAAGGACCACCCCTGGAGAACAATGCGAAACAAGTACGGTGGAGGAAACGCCATGACCCCTCATATCTCTGGTACTTCTATTGATGCCCAAGGCCGATACGCTGAGGGCACCAAGAAAATCCTTGAGGTCTTCTTCTCAGGAAAGCAAGACTACCGACCCCAGGATATCATCTGTATCAACGGTCACTACGGTACCAAGGCTTACGGTGACGACAAGGAGCACAAGGAGCACAAGGAGCACGAGGTCAAATAAGCTATCAGCTCTATAGTACTGTACAGTAGGTACAATAGGATCTTGATATTACAGT	11.4
Yali0E14256: Y. lipolytica FDH gene; promoter region SEQ ID NO: 8 (1 Kb) and 24 (1.5 Kb) (nucleic acid, listed as Yarrowia lipolytica, YALI0E14256g) DNA: ATGAAGATCCTTCTTGTTCTCTACGACGCCGGTTCCCACGCCAAGGATGAGCCTCGACTTCTCGGATGTACCGAGAACGAGCTTGGTCTCCGTGACTGGATCGAGTCCCAGGGACACACCTTGGTGACCACCTCCGACAAGGACGGTGAGAACTCAACCGTCGACAAGGAGATTGTGGATGCTGAGATTGTTATCACCACCCCCTTCCACCCCGCTTACATCACCAAGGAGCGAATTGACAAGGCCAAGAAGCTCAAGATCTGTATCACTGCCGGTGTTGGTTCCGACCATGTCGACCTTGATGCCGCCAACGCCCGAGACATTGCCGTCCTCGAGGTTACCGGATCTAACGTCCAGTCCGTCGCTGAGCACGTTGTCATGACCATGCTGGTTCTGGTCCGAAACTTCGTCCCCGCCCACGAGCAGATCATCGAGGGTGGCTGGAATGTCGCTGCTGTCGCCAAGGACTCTTACGACATTGAGGGTAAGGTCATTGGTACTGTCGGCGGTGGCCGAATTGGTCAGCGAGTCCTGAAGCGACTTGCACCCTTCAACCCCATGGAGCTCCTCTACTACGACTACCAGCCCATGCCCAAGGACGTGGAGAAGGAGATTGGCTGCCGACACGTCCCTGATCTTAAGGAGATGCTCTCTGTCTGTGACATTGTTACCATCAACTGTCCTCTCCACGACTCTACCAAGGGTATGTTCAACAAGGAACTCATCTCCCACATGAAGGATGGTGCTTGGCTCGTCAACACCGCCCGAGGTGCCATCTGTGTCACTGACGACATTGTTGAGGCCCTCAAGTCCGGTAAGATCCGAGGCTACGGTGGTGATGTCTGGAACCCCCAGCCTGCCCCCAAGGACCACCCCTGGAGATACATGCGAAACAAGTGGGGCGGTGGAAACGCCATGACCCCCCATATCTCCGGTACCTCCATCGATGCCCAGGGCCGATACTCCGAGGGTACCAAGAACATTCTCGAGGTCTACTTCTCCGGAAAGCAGAACTACCGACCTCAGGATGTCATCTGTATCAACGGCCACTACGGCACTAAGGCTTACGGTGACGACAAGGAGCACAAGGCCCACGTTTCCAAATAAGCACTTTAGCTGTTTAACTTATAAGCAATTGACTACTAGAATTTGC	23.9
Yali0C14344: putative Y. lipolytica FDH gene; promoter region SEQ ID NO: 7 (1 Kb) and 23 (1.5 Kb) (nucleic acid, listed as Yarrowia lipolytica, YALI0C14344g) DNA: ATGAAGGTCCTTCTTGTTCTATACGATGCCGGCTCCCACGCCAAGGATGAGCCAAAGCTACTTGGATGCACCGAGAACGAGCTCGGAATCAGAGACTGGCTCGAGTCACAGGGCCACACTCTTGTCACCACCTCTTCCAAGGACGGTGCCCACTCTGTGCTTGACAAGGAGATTGTCGATGCCGATGTAGTCATCACCACCCCTTTCCACCCCGGCTACATCAACAAGGAGCGAATTGACAAGGCCAAAAAGCTCAAGATCTGCATCACCGCTGGTGTTGGCTCCGACCACGTCGATCTCGACGCAGCCAACGCCCGAGATATCTCTGTTCTTGAGGTTACTGGTTCTAATGTCCAGTCTGTCGCAGAGCACGTCGTTATGACCATGCTGGTGCTGGTCCGAAACTTTGTGCCCGCCCACGAGCAGATCATCGAGGGCGGCTGGAATGTGGCTGCTGTCGCCAAGGACTCGTACGATCTCGAGGGAAAGGTCATTGGCACCGTTGGAGGCGGTCGAATCGGCCAGCGAGTGCTCAAGCGATGCAAGCCCTTTGACCCCATGGAGATGCTCTACTACGACTACCAGGCTATGCCAGCTGATGTGGAGAAGGAGATTGGATGCCGACGAGTCGAGTCTCTGGAGGAGAAGCTCTCTCTCTGTGACGTTGTCACCATCAACTGTCCCCTTCACGCCTCCACCAAGGGTCTCTTCAACAAGGAGCTCATTTCCCACATGAAGGACGGCGCTTGGCTCGTCAACACTGCTCGAGGAGCCATCTGCGTCACCGAGGACATTGTCGACGCTCTCGAGTTGGGCAAGATCCGAGGATATGGCGGTGACGTCTGGTTCCCCCAGCCTGCCTCCAAGGACCACCCCTGGAGAACCATGCGAAATAAGTACGGCGGTGGAAACGCCATGACTCCCCACATCTCCGGCACTTCCATCGACGCCCAGGGCCGATACGCTGAGGGTACCAAGAAGATCCTCGAGGTCTTTTTCTCGGGAAAGCAGAATTACAGACCCCAGGATATCATCTGTATCAACGGCCATTATGGTACAAAGGCCTACGGTGACGACAAGGAGCACAAGGGGCACCAGCAGAAGTGA	4.9
Yali0B22506: putative Y. lipolytica FDH gene; promoter region SEQ ID NO: 4 (1 Kb) and 20 (1.5 Kb) (nucleic acid, listed as Yarrowia lipolytica, YALI0B22506g) DNA: ATGAAGATTCTCCTTATCCTTTACGACGCCGGCTCCCACGCTGCTGACGAACCCAAGCTGCTAGGTTGCACCGAGAACGAGCTCGGCATCCGATCCTGGCTCGAGTCCCAGGGCCATACCCTGGTCACCACCTCTTCCAAGGAGGGTGCTGACTCTGTTCTCGACAAGGAGATTGTTGATGCCGATGTTGTCATCACCACTCCCTTCCACCCCGGCTACATCACCCGAGAGCGAATTGCCAAGGCCAAGAACCTCAAGATCTGTGTCACTGCCGGTGTTGGCTCTGACCACGTTGATCTTGCTGCCGCCAACGAGAGAAACATTGCCGTGCTCGAGGTCACTGGTTCCAACGTGACTTCTGTTGCTGAGCACGTTGTCATGACCATGCTTGTTCTTGTCCGAAACTTCGTGCCTGCCAACGAGCAGGTTCGAGGCGGCGGCTGGGACGTTGCCGGTGTTGCCAAGGATTCCTACGATATTGAGGGTAAGGTCATTGGTACCGTCGGAGTCGGCCGAATCGGCAAGCGAGTGCTCCAGCGACTCAAGCCCTTCGACCCCAAGGAGCTGCTCTACTACGACTATCAGCCTCTGTCTGCTGCCGACGAGAAGGAGATTGGCGCCCGACGAGTTGAGAAGCTCGAGGACATGCTTGCCCAGTGTGATGTTGTCACCATCAACTGCCCCCTGCACGAATCCACCAAGGGTCTCTTTAACAAGGAGCTGCTGTCCCACATGAAGAAGGGCGCCTGGCTCGTCAACACCGCTCGAGGAGCCATCTGTGTAAAGGAGGACGTTGCCGCCGCTCTCAAGTCTGGTCAGCTCCGAGGCTACGGCGGAGATGTCTGGTTCCCCCAGCCTGCCCCTGCTGACCACCCCTGGAGAAAGATGGTCAACAAGTACGGTGCCGGTAACGCCATGACCCCCCACATGTCTGGAACCTCTCTGGACGCCCAGGCCCGATACGCTGCTGGTGTCAAGCAGATTCTCGACGAGTTCTTCTCCGGCCGAGAACAGTACCGACCCCAGGACATTATCTGCTACGGTGGTAACTACGGCACCAAGGCCTACGGAGACGACAAGAAGGTCGTCGACAAGAAGTAATCCGTCCAACGTTCTTCTCAGCGCACAGGTACCTATACTACTGGTAGTATCAGGTTAAACCTCTTTTAGTTTAATGATAAGATAAGATAACATACCGT	2.9
